What was measured:
Assay in all cases: cell-based or functional assay
[1] = target: AA-TGFB-062 (TGFB-062), TGF-BR2 ECD-CD28 Long TM-TRAF6 ICD
[2] = target: AA-TGFB-007 (TGFB-007), TGF-BR2 ECD-TGFBR2 TM-TGFBR2 truncated ICD (Homo sapiens (Human)) (UniProt P37173)
[3] = target: AA-TGFB-080 (TGFB-080), TGF-BR2 ECD-DNAM1 TM-DNAM1 ICD
[4] = target: AA-TGFB-019 (TGFB-019), TGF-BR2 ECD-CD28 TM-CD28 ICD
[5] = target: AA-TGFB-079 (TGFB-079), TGF-BR2 ECD-FGFR1 TM-FGFR1 ICD
[6] = target: AA-TGFB-069 (TGFB-069), TGF-BR2 ECD-2B4 TM-2B4 ICD
[7] = target: AA-TGFB-077 (TGFB-077), TGF-BR2 ECD-GCSFR TM-GCSFR ICD
[8] = target: AA-TGFB-084 (TGFB-084), TGF-BR2 ECD-NKp30 TM-NKp30 ICD
[9] = target: AA-TGFB-078 (TGFB-078), TGF-BR2 ECD-CSF1R TM-CSF1R ICD
[10] = target: AA-TGFB-073 (TGFB-073), TGF-BR2 ECD-SLAMF7 TM-SLAMF7 ICD
[11] = target: AA-TGFB-083 (TGFB-083), TGF-BR2 ECD-NKp44 TM-NKp44 ICD
[12] = target: AA-TGFB-082 (TGFB-082), TGF-BR2 ECD-NKp46 TM-NKp46 ICD
[13] = target: AA-TGFB-061 (TGFB-061), TGF-BR2 ECD-CD28 Long TM-TRAF3 ICD
[14] = target: AA-TGFB-087 (TGFB-087), TGF-BR2 ECD-TLR4 TM-TLR4 ICD
[15] = target: AA-TGFB-096 (TGFB-096), TGF-BR2 ECD-CD28 Long TM-Fgr ICD
[16] = target: AA-TGFB-086 (TGFB-086), TGF-BR2 ECD-CD28 Long TM-IRAK4 ICD
[17] = target: AA-TGFB-068 (TGFB-068), TGF-BR2 ECD-FCGR3A TM-FCGR3A ICD
[18] = target: AA-TGFB-056 (TGFB-056), TGF-BR2 ECD-CD28 Long TM-SLP76 ICD
[19] = target: AA-TGFB-071 (TGFB-071), TGF-BR2 ECD-SLAMF5 TM-SLAMF5 ICD
[20] = target: AA-TGFB-066 (TGFB-066), TGF-BR2 ECD-CD28 Long TM-GRB2 ICD
[21] = target: AA-TGFB-094 (TGFB-094), TGF-BR2 ECD-CD28 Long TM-Lyn ICD
[22] = target: AA-TGFB-058 (TGFB-058), TGF-BR2 ECD-DAP12 TM-DAP12 ICD
[23] = target: AA-TGFB-088 (TGFB-088), TGF-BR2 ECD-DR3 TM-DR3 ICD

Sequence of AA-TGFB-082 (TGFB-082), TGF-BR2 ECD-NKp46 TM-NKp46 ICD (chain, as listed by the source limits assumed, form in doubt): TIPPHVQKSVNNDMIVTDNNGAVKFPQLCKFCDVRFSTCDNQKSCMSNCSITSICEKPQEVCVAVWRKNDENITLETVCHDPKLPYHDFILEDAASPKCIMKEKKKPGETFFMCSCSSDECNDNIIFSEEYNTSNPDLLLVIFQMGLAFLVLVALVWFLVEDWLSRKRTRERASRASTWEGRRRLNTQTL
Sequence of AA-TGFB-007 (TGFB-007), TGF-BR2 ECD-TGFBR2 TM-TGFBR2 truncated ICD (Homo sapiens (Human)) (P37173 23-199, form in doubt): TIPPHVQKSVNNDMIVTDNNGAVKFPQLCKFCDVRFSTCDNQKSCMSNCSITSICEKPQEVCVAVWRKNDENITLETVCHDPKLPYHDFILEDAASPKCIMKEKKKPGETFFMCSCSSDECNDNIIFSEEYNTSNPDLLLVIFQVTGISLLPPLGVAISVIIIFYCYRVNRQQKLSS
Sequence of AA-TGFB-071 (TGFB-071), TGF-BR2 ECD-SLAMF5 TM-SLAMF5 ICD (chain, as listed by the source limits assumed, form in doubt): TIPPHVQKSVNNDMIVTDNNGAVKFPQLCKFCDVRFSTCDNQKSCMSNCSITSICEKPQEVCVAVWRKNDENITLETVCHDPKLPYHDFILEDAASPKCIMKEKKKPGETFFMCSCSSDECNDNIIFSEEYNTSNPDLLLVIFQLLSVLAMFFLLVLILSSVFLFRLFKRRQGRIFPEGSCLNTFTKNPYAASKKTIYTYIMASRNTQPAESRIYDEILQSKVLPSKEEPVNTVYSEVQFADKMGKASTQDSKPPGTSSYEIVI
Sequence of AA-TGFB-086 (TGFB-086), TGF-BR2 ECD-CD28 Long TM-IRAK4 ICD (chain, as listed by the source limits assumed, form in doubt): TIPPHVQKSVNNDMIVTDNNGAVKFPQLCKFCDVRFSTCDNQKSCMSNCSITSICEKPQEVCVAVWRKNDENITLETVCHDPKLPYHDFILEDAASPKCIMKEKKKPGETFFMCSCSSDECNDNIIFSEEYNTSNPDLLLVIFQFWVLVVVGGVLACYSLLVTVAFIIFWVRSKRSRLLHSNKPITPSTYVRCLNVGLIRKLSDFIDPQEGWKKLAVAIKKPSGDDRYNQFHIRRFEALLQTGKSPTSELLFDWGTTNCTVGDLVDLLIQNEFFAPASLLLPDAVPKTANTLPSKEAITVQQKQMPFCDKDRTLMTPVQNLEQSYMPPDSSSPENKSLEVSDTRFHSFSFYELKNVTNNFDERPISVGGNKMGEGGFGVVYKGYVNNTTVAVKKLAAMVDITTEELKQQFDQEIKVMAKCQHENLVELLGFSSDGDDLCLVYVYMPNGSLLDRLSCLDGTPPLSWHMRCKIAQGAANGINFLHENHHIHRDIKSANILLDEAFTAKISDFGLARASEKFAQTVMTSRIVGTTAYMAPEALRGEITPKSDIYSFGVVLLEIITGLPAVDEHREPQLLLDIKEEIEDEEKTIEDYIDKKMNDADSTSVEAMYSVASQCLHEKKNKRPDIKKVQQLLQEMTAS
Sequence of AA-TGFB-019 (TGFB-019), TGF-BR2 ECD-CD28 TM-CD28 ICD (chain, as listed by the source limits assumed, form in doubt): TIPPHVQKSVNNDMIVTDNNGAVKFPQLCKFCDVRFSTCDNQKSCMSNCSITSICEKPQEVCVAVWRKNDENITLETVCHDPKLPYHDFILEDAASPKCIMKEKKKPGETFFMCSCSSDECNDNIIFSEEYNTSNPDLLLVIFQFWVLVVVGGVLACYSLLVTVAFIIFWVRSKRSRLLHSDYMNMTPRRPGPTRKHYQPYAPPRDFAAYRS
Sequence of AA-TGFB-079 (TGFB-079), TGF-BR2 ECD-FGFR1 TM-FGFR1 ICD (chain, as listed by the source limits assumed, form in doubt): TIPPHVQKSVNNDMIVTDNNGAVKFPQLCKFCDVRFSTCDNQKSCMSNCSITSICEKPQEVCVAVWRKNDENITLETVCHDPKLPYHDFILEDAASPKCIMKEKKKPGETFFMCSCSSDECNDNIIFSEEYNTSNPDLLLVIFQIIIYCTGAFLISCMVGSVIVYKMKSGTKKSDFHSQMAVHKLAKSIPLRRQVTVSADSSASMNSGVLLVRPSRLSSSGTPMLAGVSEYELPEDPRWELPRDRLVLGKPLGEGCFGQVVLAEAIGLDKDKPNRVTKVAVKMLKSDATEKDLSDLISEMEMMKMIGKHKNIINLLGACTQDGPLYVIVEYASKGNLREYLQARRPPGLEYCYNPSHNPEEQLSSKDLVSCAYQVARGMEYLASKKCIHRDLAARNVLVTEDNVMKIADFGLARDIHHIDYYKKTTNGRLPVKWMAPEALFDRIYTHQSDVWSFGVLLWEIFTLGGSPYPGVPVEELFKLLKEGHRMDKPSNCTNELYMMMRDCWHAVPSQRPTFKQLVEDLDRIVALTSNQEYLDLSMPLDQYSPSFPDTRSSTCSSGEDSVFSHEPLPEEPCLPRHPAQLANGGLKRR
Sequence of AA-TGFB-062 (TGFB-062), TGF-BR2 ECD-CD28 Long TM-TRAF6 ICD (chain, as listed by the source limits assumed, form in doubt): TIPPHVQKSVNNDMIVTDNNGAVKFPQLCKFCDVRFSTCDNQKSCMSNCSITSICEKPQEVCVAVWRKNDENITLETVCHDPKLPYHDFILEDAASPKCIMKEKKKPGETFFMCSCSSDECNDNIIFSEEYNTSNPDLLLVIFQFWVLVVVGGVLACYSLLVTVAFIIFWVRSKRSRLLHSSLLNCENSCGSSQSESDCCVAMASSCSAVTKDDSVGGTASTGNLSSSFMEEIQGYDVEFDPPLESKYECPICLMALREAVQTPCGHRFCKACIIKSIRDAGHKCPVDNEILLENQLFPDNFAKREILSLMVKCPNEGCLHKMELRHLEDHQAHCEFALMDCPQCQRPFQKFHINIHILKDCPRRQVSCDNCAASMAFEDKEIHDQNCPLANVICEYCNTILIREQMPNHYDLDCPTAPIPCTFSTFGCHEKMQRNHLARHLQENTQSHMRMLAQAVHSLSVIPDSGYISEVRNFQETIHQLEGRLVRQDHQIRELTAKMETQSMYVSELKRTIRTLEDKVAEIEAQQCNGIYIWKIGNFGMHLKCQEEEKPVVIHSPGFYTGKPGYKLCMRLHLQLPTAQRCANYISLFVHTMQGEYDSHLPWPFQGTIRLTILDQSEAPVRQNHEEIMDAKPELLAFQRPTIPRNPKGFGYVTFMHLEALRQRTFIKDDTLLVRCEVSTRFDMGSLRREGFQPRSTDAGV
Sequence of AA-TGFB-073 (TGFB-073), TGF-BR2 ECD-SLAMF7 TM-SLAMF7 ICD (chain, as listed by the source limits assumed, form in doubt): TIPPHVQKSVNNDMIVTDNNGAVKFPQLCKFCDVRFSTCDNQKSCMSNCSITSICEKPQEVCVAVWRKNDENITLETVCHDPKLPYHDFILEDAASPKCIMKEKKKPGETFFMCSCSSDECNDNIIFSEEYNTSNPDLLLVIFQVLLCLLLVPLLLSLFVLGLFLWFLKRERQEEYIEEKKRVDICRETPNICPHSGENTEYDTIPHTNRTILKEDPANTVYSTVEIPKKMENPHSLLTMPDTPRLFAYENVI
Sequence of AA-TGFB-056 (TGFB-056), TGF-BR2 ECD-CD28 Long TM-SLP76 ICD (chain, as listed by the source limits assumed, form in doubt): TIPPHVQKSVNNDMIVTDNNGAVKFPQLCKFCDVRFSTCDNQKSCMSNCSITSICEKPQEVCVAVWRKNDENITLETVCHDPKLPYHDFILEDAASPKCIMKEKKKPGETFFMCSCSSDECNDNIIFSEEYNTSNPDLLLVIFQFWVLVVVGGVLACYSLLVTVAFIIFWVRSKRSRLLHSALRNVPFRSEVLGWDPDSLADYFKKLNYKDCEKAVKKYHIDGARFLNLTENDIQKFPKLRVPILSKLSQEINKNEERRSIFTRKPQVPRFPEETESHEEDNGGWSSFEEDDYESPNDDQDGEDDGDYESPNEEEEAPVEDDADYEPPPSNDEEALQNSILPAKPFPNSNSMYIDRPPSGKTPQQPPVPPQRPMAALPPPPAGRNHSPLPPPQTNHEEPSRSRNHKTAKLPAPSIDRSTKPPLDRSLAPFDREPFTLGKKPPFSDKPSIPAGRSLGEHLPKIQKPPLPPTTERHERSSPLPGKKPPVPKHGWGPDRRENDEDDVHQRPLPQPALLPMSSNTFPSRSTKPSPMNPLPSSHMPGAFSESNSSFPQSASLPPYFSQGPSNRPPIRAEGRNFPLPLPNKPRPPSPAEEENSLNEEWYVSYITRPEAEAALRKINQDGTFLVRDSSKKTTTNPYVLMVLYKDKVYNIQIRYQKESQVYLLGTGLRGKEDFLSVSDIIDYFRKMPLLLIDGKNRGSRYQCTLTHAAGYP
Sequence of AA-TGFB-078 (TGFB-078), TGF-BR2 ECD-CSF1R TM-CSF1R ICD (chain, as listed by the source limits assumed, form in doubt): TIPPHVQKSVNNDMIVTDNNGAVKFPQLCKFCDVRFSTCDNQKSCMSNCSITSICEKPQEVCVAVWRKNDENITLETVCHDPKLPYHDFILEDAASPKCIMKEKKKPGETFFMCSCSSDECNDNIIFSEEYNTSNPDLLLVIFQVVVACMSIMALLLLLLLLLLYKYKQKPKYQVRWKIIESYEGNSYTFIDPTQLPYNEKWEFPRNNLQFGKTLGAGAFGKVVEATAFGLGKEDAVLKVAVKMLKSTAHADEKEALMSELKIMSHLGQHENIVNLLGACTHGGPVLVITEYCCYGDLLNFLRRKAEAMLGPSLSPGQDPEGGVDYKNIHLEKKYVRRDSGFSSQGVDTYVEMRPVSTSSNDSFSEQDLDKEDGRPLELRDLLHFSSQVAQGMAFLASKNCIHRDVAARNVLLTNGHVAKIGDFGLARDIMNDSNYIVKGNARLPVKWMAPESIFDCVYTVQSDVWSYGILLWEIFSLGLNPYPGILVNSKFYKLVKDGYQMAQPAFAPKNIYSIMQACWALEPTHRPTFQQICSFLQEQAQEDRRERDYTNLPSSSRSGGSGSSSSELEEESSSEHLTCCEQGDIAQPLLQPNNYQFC
Sequence of AA-TGFB-068 (TGFB-068), TGF-BR2 ECD-FCGR3A TM-FCGR3A ICD (chain, as listed by the source limits assumed, form in doubt): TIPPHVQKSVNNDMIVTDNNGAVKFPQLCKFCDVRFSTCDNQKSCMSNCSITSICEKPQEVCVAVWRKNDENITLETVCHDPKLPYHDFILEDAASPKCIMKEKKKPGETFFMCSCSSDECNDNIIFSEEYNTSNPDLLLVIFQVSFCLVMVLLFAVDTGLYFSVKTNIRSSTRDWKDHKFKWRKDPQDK
Sequence of AA-TGFB-066 (TGFB-066), TGF-BR2 ECD-CD28 Long TM-GRB2 ICD (chain, as listed by the source limits assumed, form in doubt): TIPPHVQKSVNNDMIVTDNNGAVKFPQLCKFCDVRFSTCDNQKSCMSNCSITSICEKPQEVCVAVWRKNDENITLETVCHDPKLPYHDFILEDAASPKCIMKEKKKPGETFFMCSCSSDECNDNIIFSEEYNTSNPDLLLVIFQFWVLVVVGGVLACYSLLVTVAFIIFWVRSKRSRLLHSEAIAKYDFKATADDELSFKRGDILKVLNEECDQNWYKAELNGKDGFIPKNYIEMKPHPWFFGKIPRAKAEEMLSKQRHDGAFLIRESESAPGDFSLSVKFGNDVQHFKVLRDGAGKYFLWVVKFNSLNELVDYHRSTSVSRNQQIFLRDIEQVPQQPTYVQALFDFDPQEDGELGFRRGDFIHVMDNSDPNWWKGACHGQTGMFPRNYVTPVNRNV

5-Day Fold Expansion of NK cells, 10 ng/mL TGF-B1 [1]: 1.41 fold
Average IFNg Secretion, 10 ng/mL TGF-B1 [1]: 3010 pg/mL
Average IP-10 Secretion, 10 ng/mL TGF-B1 [1]: 1370
5-Day Fold Expansion of NK cells, 10 ng/mL TGF-B1 [2]: 2 fold
Average IFNg Secretion, 10 ng/mL TGF-B1 [2]: > 9000 pg/mL
Average IP-10 Secretion, 10 ng/mL TGF-B1 [2]: 2150
CD69, fold-change of MFI over no stimulation, High (0.05 ug/mL) [2]: 1.2 fold
CD69, fold-change of MFI over no stimulation, Low (0.002 ug/mL) [2]: 1.4 fold
CD69, fold-change of MFI over no stimulation, Med. (0.01 ug/mL) [2]: 1.2 fold
GFP, fold-change of MFI over no stimulation, High (0.05 ug/mL) [2]: 0.8 fold
GFP, fold-change of MFI over no stimulation, Low (0.002 ug/mL) [2]: 0.7 fold
GFP, fold-change of MFI over no stimulation, Med. (0.01 ug/mL) [2]: 0.7 fold
5-Day Fold Expansion of NK cells, 10 ng/mL TGF-B1 [3]: 2.11 fold
Average IFNg Secretion, 10 ng/mL TGF-B1 [3]: 4380 pg/mL
Average IP-10 Secretion, 10 ng/mL TGF-B1 [3]: 1230
5-Day Fold Expansion of NK cells, 10 ng/mL TGF-B1 [4]: 1.99 fold
Average IFNg Secretion, 10 ng/mL TGF-B1 [4]: 6700 pg/mL
Average IP-10 Secretion, 10 ng/mL TGF-B1 [4]: 1170
5-Day Fold Expansion of NK cells, 10 ng/mL TGF-B1 [5]: 1.49 fold
Average IFNg Secretion, 10 ng/mL TGF-B1 [5]: 3580 pg/mL
Average IP-10 Secretion, 10 ng/mL TGF-B1 [5]: 685
5-Day Fold Expansion of NK cells, 10 ng/mL TGF-B1 [6]: 3.86 fold
Average IFNg Secretion, 10 ng/mL TGF-B1 [6]: > 9000 pg/mL
Average IP-10 Secretion, 10 ng/mL TGF-B1 [6]: 2340
5-Day Fold Expansion of NK cells, 10 ng/mL TGF-B1 [7]: 2.52 fold
Average IFNg Secretion, 10 ng/mL TGF-B1 [7]: 6640 pg/mL
Average IP-10 Secretion, 10 ng/mL TGF-B1 [7]: 1410
5-Day Fold Expansion of NK cells, 10 ng/mL TGF-B1 [8]: 2.19 fold
Average IFNg Secretion, 10 ng/mL TGF-B1 [8]: 4870 pg/mL
Average IP-10 Secretion, 10 ng/mL TGF-B1 [8]: 1340
5-Day Fold Expansion of NK cells, 10 ng/mL TGF-B1 [9]: 2.14 fold
Average IFNg Secretion, 10 ng/mL TGF-B1 [9]: 6320 pg/mL
Average IP-10 Secretion, 10 ng/mL TGF-B1 [9]: 1000
5-Day Fold Expansion of NK cells, 10 ng/mL TGF-B1 [10]: 3.08 fold
Average IFNg Secretion, 10 ng/mL TGF-B1 [10]: 6910 pg/mL
Average IP-10 Secretion, 10 ng/mL TGF-B1 [10]: 1420
5-Day Fold Expansion of NK cells, 10 ng/mL TGF-B1 [11]: 2.08 fold
Average IFNg Secretion, 10 ng/mL TGF-B1 [11]: 3960 pg/mL
Average IP-10 Secretion, 10 ng/mL TGF-B1 [11]: 968
5-Day Fold Expansion of NK cells, 10 ng/mL TGF-B1 [12]: 3.26 fold
Average IFNg Secretion, 10 ng/mL TGF-B1 [12]: 7170 pg/mL
Average IP-10 Secretion, 10 ng/mL TGF-B1 [12]: 1350
5-Day Fold Expansion of NK cells, 10 ng/mL TGF-B1 [13]: 1.29 fold
Average IFNg Secretion, 10 ng/mL TGF-B1 [13]: 3090 pg/mL
Average IP-10 Secretion, 10 ng/mL TGF-B1 [13]: 762
5-Day Fold Expansion of NK cells, 10 ng/mL TGF-B1 [14]: 2.51 fold
Average IFNg Secretion, 10 ng/mL TGF-B1 [14]: 6060 pg/mL
Average IP-10 Secretion, 10 ng/mL TGF-B1 [14]: 1260
5-Day Fold Expansion of NK cells, 10 ng/mL TGF-B1 [15]: 1 fold
Average IFNg Secretion, 10 ng/mL TGF-B1 [15]: > 9000 pg/mL
Average IP-10 Secretion, 10 ng/mL TGF-B1 [15]: 2330
5-Day Fold Expansion of NK cells, 10 ng/mL TGF-B1 [16]: 1.76 fold
Average IFNg Secretion, 10 ng/mL TGF-B1 [16]: 3150 pg/mL
Average IP-10 Secretion, 10 ng/mL TGF-B1 [16]: 938
5-Day Fold Expansion of NK cells, 10 ng/mL TGF-B1 [17]: 1.55 fold
Average IFNg Secretion, 10 ng/mL TGF-B1 [17]: 2820 pg/mL
Average IP-10 Secretion, 10 ng/mL TGF-B1 [17]: 686
5-Day Fold Expansion of NK cells, 10 ng/mL TGF-B1 [18]: 0.41 fold
Average IFNg Secretion, 10 ng/mL TGF-B1 [18]: 1.68 pg/mL
5-Day Fold Expansion of NK cells, 10 ng/mL TGF-B1 [19]: 3.06 fold
Average IFNg Secretion, 10 ng/mL TGF-B1 [19]: > 9000 pg/mL
Average IP-10 Secretion, 10 ng/mL TGF-B1 [19]: 2300
5-Day Fold Expansion of NK cells, 10 ng/mL TGF-B1 [20]: 1.44 fold
Average IFNg Secretion, 10 ng/mL TGF-B1 [20]: 3270 pg/mL
Average IP-10 Secretion, 10 ng/mL TGF-B1 [20]: 1240
5-Day Fold Expansion of NK cells, 10 ng/mL TGF-B1 [21]: 1.2 fold
Average IFNg Secretion, 10 ng/mL TGF-B1 [21]: > 9000 pg/mL
Average IP-10 Secretion, 10 ng/mL TGF-B1 [21]: 3210
5-Day Fold Expansion of NK cells, 10 ng/mL TGF-B1 [22]: 1.76 fold
Average IFNg Secretion, 10 ng/mL TGF-B1 [22]: 2360 pg/mL
Average IP-10 Secretion, 10 ng/mL TGF-B1 [22]: 837
5-Day Fold Expansion of NK cells, 10 ng/mL TGF-B1 [23]: 0.66 fold
Substance: recombinant TGF-B1 cytokine (from UniProt P01137 279-390) (ligand)
Average % Killing (SKOV-3), 10 ng/mL TGF-B1 [1]: 8.4%
Average % Killing (SKOV-3), 10 ng/mL TGF-B1 [2]: 24.1%
Average % Killing (SKOV-3), 10 ng/mL TGF-B1 [3]: 10.8%
Average % Killing (SKOV-3), 10 ng/mL TGF-B1 [4]: 21.1%
Average % Killing (SKOV-3), 10 ng/mL TGF-B1 [5]: 9.28%
Average % Killing (SKOV-3), 10 ng/mL TGF-B1 [6]: 14.4%
Average % Killing (SKOV-3), 10 ng/mL TGF-B1 [7]: 14.4%
Average % Killing (SKOV-3), 10 ng/mL TGF-B1 [8]: 13.7%
Average % Killing (SKOV-3), 10 ng/mL TGF-B1 [9]: 15.2%
Average % Killing (SKOV-3), 10 ng/mL TGF-B1 [10]: 13.1%
Average % Killing (SKOV-3), 10 ng/mL TGF-B1 [11]: 14.1%
Average % Killing (SKOV-3), 10 ng/mL TGF-B1 [12]: 20.4%
Average % Killing (SKOV-3), 10 ng/mL TGF-B1 [13]: 8.9%
Average % Killing (SKOV-3), 10 ng/mL TGF-B1 [14]: 11.9%
Average % Killing (SKOV-3), 10 ng/mL TGF-B1 [15]: 16%
Average % Killing (SKOV-3), 10 ng/mL TGF-B1 [16]: 7.83%
Average % Killing (SKOV-3), 10 ng/mL TGF-B1 [17]: 8.25%
Average % Killing (SKOV-3), 10 ng/mL TGF-B1 [18]: 2.07%
Average % Killing (SKOV-3), 10 ng/mL TGF-B1 [19]: 18.8%
Average % Killing (SKOV-3), 10 ng/mL TGF-B1 [20]: 8.89%
Average % Killing (SKOV-3), 10 ng/mL TGF-B1 [21]: 16.5%
Average % Killing (SKOV-3), 10 ng/mL TGF-B1 [22]: 8.35%
Average % Killing (SKOV-3), 10 ng/mL TGF-B1 [23]: 2.23%
